Source: patent US20240181075A1 (published 2024)
Blank lines part the entries; values can stand above or below the binder they belong to.

Key:
[1] = biological target: Mouse N4; experiment: flow cytometry, transfected CHO cells
[2] = biological target: Rat N4; experiment: flow cytometry, transfected CHO cells
[3] = biological target: Monkey N4; experiment: flow cytometry, transfected CHO cells
[4] = biological target: T1, human Nectin-4 on cells (CHO cells transfected with human Nectin-4 cDNA); SUM190 tumor cells; normal … (human, UniProt Q96NY8 32-510); experiment: flow
T1 chain: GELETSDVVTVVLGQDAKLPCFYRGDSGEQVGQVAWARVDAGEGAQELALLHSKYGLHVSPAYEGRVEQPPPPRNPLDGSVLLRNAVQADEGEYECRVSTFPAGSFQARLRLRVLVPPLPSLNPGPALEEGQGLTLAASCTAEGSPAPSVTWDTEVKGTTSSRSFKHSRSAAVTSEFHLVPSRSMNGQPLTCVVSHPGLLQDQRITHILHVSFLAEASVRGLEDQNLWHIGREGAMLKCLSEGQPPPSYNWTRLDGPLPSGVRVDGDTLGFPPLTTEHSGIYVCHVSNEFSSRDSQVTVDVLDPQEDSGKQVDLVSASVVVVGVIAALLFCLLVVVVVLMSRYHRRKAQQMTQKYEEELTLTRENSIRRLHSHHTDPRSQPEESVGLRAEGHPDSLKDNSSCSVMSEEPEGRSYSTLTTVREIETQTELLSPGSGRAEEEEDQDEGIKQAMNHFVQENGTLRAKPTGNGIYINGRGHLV

[5] = biological target: Mouse N4; experiment: flow cytometry, transfected CHO cells; ambiguous fit
[6] = biological target: Rat N4; experiment: as above
[7] = biological target: T1, human Nectin-4 on cells (CHO cells …); experiment: flow cytometry, transfected CHO cells

B3: Ch-15A7.5 (antibody, V domains shown)
VH: EVKLVESGGGLVQPGGSRKLSCAASGFTFSNYGMAWVRQAPGKGPEWVAFISNLAYGINYADTVTGRFTISRENAKNTLYLEMRSLRSEDTAMYYCARGARATGWFAYWGQGTLVTVSA
VL: DIVMTQSQKFMSTSIGDRVSVTCKASQNVDTHVAWYQEKPGQSPKALIYSASYRYSGVPDRFTGSGSGTDFTLTISNVQSEDLADYFCQQYNSYPLTFGGGTKLEIK
EC50 [5]: ~31.2 nM | EC50 [6]: ~5.16 nM | EC50 [3]: 1.22 nM

B5: Ch-5A12.2 (antibody, V domains shown)
VH: QIQLQQSGAELVKPGASVTLSCKTSGFTFNSMYISWLKQKPGQSLEWIAWIYAGTGGTRFNQKFTGKVQLTVDTSSSTAYMQFSSLTTDDSAIYYCAIRSGFVPMDYWGQGTSVTVSS
VL: SIVMTQTPKFLLVSAGDRVTITCKASQSVSNDVAWYQQKPGQSPKLLIYYASNRYTGVPDRFTGSGYGTDFTFTISTVQAEDLAVYFCQQDYSSPWTFGGGTKLEIK
EC50 [5]: ~205 nM | EC50 [2]: 0.478 nM | EC50 [3]: 0.134 nM

B6: Ch-5A12.2 (chimeric anti-Nectin-4 monoclonal antibody 5A12.2) (antibody, V domains shown)
VH: QIQLQQSGAELVKPGASVTLSCKTSGFTFNSMYISWLKQKPGQSLEWIAWIYAGTGGTRFNQKFTGKVQLTVDTSSSTAYMQFSSLTTDDSAIYYCAIRSGFVPMDYWGQGTSVTVSS
VL: SIVMTQTPKFLLVSAGDRVTITCKASQSVSNDVAWYQQKPGQSPKLLIYYASNRYTGVPDRFTGSGYGTDFTFTISTVQAEDLAVYFCQQDYSSPWTFGGGTKLEIK
EC50 [7]: 0.37 nM

B7: Ch-3A1.4 (antibody, V domains shown)
VH: DVQLQESGPSLVKPSQTLSLTCSVTGDSITSGYWNWIRKFPGNKLEYMGYISNSGITYYNPSLKSRISITRDTSKNQYFLQLNSVTAEDTATYYCTRFGSTMILYYTMDYWGQGTSVTVSS
VL: DIVMTQSPVTLSVTPGDRVSLSCRASQSISDYLHWYQQKSQESPRLLIKYASKSISGIPSRFSGSGSGSNFTLSINSVEPEDVGVYYCQNGHSFPLTFGAGTKLELK
EC50 [7]: 2.83 nM

The remaining lines, values ahead:

EC50 [1]: 41.1 nM | EC50 [2]: 0.097 nM | EC50 [3]: 0.0678 nM
B1: HA22 (antibody, V domains shown)
VH: EVQLVESGGGLVQPGGSLRLSCAASGFTFSSYNMNWVRQAPGKGLEWVSYISSSSSTIYYADSVKGRFTISRDNAKNSLSLQMNSLRDEDTAVYYCARAYYYGMDVWGQGTTVTVSS
VL: DIQMTQSPSSVSASVGDRVTITCRASQGISGWLAWYQQKPGKAPKFLIYAASTLQSGVPSRFSGSGSGTDFTLTISSLQPEDFATYYCQQANSFPPTFGGGTKVEIK

EC50 [4]: 0.346 nM
B2: HA22 (Enfortumab), human monoclonal anti-Nectin-4 antibody (antibody, V domains shown)
VH: EVQLVESGGGLVQPGGSLRLSCAASGFTFSSYNMNWVRQAPGKGLEWVSYISSSSSTIYYADSVKGRFTISRDNAKNSLSLQMNSLRDEDTAVYYCARAYYYGMDVWGQGTTVTVSS
VL: DIQMTQSPSSVSASVGDRVTITCRASQGISGWLAWYQQKPGKAPKFLIYAASTLQSGVPSRFSGSGSGTDFTLTISSLQPEDFATYYCQQANSFPPTFGGGTKVEIK

EC50 [7]: 0.692 nM
B4: Ch-15A7.5 (chimeric anti-Nectin-4 monoclonal antibody 15A7.5) (antibody, V domains shown)
VH: EVKLVESGGGLVQPGGSRKLSCAASGFTFSNYGMAWVRQAPGKGPEWVAFISNLAYGINYADTVTGRFTISRENAKNTLYLEMRSLRSEDTAMYYCARGARATGWFAYWGQGTLVTVSA
VL: DIVMTQSQKFMSTSIGDRVSVTCKASQNVDTHVAWYQEKPGQSPKALIYSASYRYSGVPDRFTGSGSGTDFTLTISNVQSEDLADYFCQQYNSYPLTFGGGTKLEIK
